{"source": "paper PMC10786891", "about": "“Massively parallel profiling of RNA-targeting CRISPR-Cas13d”", "molecular_target": "T1, EsCas13d, nuclease-dead (Eubacterium siraeum, UniProt B0MS50, R295A;H300A;R849A;H854A)", "T1 sequence": "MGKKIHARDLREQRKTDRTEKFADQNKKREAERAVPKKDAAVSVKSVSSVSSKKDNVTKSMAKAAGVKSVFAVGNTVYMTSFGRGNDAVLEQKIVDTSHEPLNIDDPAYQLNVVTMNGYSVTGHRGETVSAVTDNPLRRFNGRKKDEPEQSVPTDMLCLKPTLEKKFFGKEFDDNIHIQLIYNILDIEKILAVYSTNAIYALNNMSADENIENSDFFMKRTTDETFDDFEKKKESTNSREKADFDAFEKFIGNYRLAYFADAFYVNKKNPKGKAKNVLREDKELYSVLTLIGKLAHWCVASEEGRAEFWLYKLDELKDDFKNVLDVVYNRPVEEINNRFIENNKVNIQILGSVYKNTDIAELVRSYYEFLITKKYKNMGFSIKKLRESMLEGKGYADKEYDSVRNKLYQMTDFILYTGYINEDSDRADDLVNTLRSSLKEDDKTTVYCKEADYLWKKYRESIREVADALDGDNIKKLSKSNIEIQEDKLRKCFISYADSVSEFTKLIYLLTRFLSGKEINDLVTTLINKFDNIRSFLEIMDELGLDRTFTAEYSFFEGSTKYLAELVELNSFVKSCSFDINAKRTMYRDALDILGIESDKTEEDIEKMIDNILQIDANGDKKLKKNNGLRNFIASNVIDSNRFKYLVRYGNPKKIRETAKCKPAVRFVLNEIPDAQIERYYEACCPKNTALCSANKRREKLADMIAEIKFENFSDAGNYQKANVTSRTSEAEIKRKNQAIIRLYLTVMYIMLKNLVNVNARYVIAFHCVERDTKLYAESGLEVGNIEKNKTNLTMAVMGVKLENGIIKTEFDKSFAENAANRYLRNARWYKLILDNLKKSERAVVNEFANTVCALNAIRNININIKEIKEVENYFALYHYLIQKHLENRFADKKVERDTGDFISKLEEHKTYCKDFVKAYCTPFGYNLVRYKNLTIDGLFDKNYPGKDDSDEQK", "test": "crRNA (strand 1, pre-loaded); Mg2+; 40 mM Tris-HCl pH 7.5, 150 mM NaCl, 6 mM MgCl2, 1 mM DTT, 0.1% Tween-20, 0.2 mg/ml BSA; 25 C; 10 min per concentration, then washed", "details": "tags: His6-TwinStrep-SUMO cleaved; N-terminal SNAP kept (SNAP-Surface 488); label: 3' end held by stalled T7 RNA polymerase"}
{"binder": "target 1 insU 3' of 12,insG 3' of 10 (mixed) RNA 1: CACCCGUGCAAAAAUGCAGGGGUCUAAAACUGAGCGGAUAACCUCUCUAUGG RNA 2: GGGAAUGGAUCCACAUCUACGAAUUCGUACCAUAGAGAGGUUUGAUCCGCUCACCGAGAUCGGAAGAGCACACGU", "values": [{"measurement": "Kd", "result": "13.1 ± 0.5", "unit": "nM"}]}
{"binder": "target 1 G5A,U8G (mixed) RNA 1: CACCCGUGCAAAAAUGCAGGGGUCUAAAACUGAGCGGAUAACCUCUCUAUGG RNA 2: GGGAAUGGAUCCACAUCUACGAAUUCGUACCAUAGAGAGGUUAGCCACUCACCGAGAUCGGAAGAGCACACGU", "values": [{"measurement": "Kd", "result": "38 ± 2.4", "unit": "nM"}]}
{"binder": "target 1 complement block 3-5 (mixed) RNA 1: CACCCGUGCAAAAAUGCAGGGGUCUAAAACUGAGCGGAUAACCUCUCUAUGG RNA 2: GGGAAUGGAUCCACAUCUACGAAUUCGUACCAUAGAGAGGUUAUCCCGACACCGAGAUCGGAAGAGCACACGU", "values": [{"measurement": "Kd", "result": "10.5 ± 1", "unit": "nM"}]}
{"binder": "target 1 U19C,C22U (mixed) RNA 1: CACCCGUGCAAAAAUGCAGGGGUCUAAAACUGAGCGGAUAACCUCUCUAUGG RNA 2: GGGAAUGGAUCCACAUCUACGAAUUCGUAUCACAGAGAGGUUAUCCGCUCACCGAGAUCGGAAGAGCACACGU", "values": [{"measurement": "Kd", "result": "45 ± 6", "unit": "nM"}]}
{"binder": "target 1 insA 3' of 19,insC 3' of 11 (mixed) RNA 1: CACCCGUGCAAAAAUGCAGGGGUCUAAAACUGAGCGGAUAACCUCUCUAUGG RNA 2: GGGAAUGGAUCCACAUCUACGAAUUCGUACCAUAAGAGAGGUCUAUCCGCUCACCGAGAUCGGAAGAGCACACGU", "values": [{"measurement": "Kd", "result": "100 ± 40", "unit": "nM"}]}
{"binder": "target 1 del11,del22 (mixed) RNA 1: CACCCGUGCAAAAAUGCAGGGGUCUAAAACUGAGCGGAUAACCUCUCUAUGG RNA 2: GGGAAUGGAUCCACAUCUACGAAUUCGUACAUAGAGAGGUAUCCGCUCACCGAGAUCGGAAGAGCACACGU", "values": [{"measurement": "Kd", "result": "78 ± 33", "unit": "nM"}]}
{"binder": "target 1 G12A,A16G (mixed) RNA 1: CACCCGUGCAAAAAUGCAGGGGUCUAAAACUGAGCGGAUAACCUCUCUAUGG RNA 2: GGGAAUGGAUCCACAUCUACGAAUUCGUACCAUAGGGAGAUUAUCCGCUCACCGAGAUCGGAAGAGCACACGU", "values": [{"measurement": "Kd", "result": "48 ± 5", "unit": "nM"}]}
{"binder": "target 1 insC 3' of 14,insG 3' of 7 (mixed) RNA 1: CACCCGUGCAAAAAUGCAGGGGUCUAAAACUGAGCGGAUAACCUCUCUAUGG RNA 2: GGGAAUGGAUCCACAUCUACGAAUUCGUACCAUAGAGACGGUUAUCGCGCUCACCGAGAUCGGAAGAGCACACGU", "values": [{"measurement": "Kd", "result": "41 ± 8", "unit": "nM"}]}
{"binder": "target 1 insU 3' of 20,insU 3' of 20 (mixed) RNA 1: CACCCGUGCAAAAAUGCAGGGGUCUAAAACUGAGCGGAUAACCUCUCUAUGG RNA 2: GGGAAUGGAUCCACAUCUACGAAUUCGUACCAUUUAGAGAGGUUAUCCGCUCACCGAGAUCGGAAGAGCACACGU", "values": [{"measurement": "Kd", "result": "13.5 ± 1", "unit": "nM"}]}
{"binder": "target 1 insG 3' of 10,insC 3' of 9 (mixed) RNA 1: CACCCGUGCAAAAAUGCAGGGGUCUAAAACUGAGCGGAUAACCUCUCUAUGG RNA 2: GGGAAUGGAUCCACAUCUACGAAUUCGUACCAUAGAGAGGUUGACUCCGCUCACCGAGAUCGGAAGAGCACACGU", "values": [{"measurement": "Kd", "result": "14.9 ± 0.6", "unit": "nM"}]}
{"binder": "target 1 insC 3' of 17,insC 3' of 13 (mixed) RNA 1: CACCCGUGCAAAAAUGCAGGGGUCUAAAACUGAGCGGAUAACCUCUCUAUGG RNA 2: GGGAAUGGAUCCACAUCUACGAAUUCGUACCAUAGCAGAGCGUUAUCCGCUCACCGAGAUCGGAAGAGCACACGU", "values": [{"measurement": "Kd", "result": "48 ± 7", "unit": "nM"}]}
{"binder": "target 1 insA 3' of 19,insG 3' of 8 (mixed) RNA 1: CACCCGUGCAAAAAUGCAGGGGUCUAAAACUGAGCGGAUAACCUCUCUAUGG RNA 2: GGGAAUGGAUCCACAUCUACGAAUUCGUACCAUAAGAGAGGUUAUGCCGCUCACCGAGAUCGGAAGAGCACACGU", "values": [{"measurement": "Kd", "result": "32.7 ± 2.3", "unit": "nM"}]}
{"binder": "target 1 A1G,U8C (mixed) RNA 1: CACCCGUGCAAAAAUGCAGGGGUCUAAAACUGAGCGGAUAACCUCUCUAUGG RNA 2: GGGAAUGGAUCCACAUCUACGAAUUCGUACCAUAGAGAGGUUACCCGCUCGCCGAGAUCGGAAGAGCACACGU", "values": [{"measurement": "Kd", "result": "10.2 ± 0.9", "unit": "nM"}]}
